How the values were obtained:
[1] = molecular target: SARS-CoV-2 RBD (SARS-CoV-2, UniProt P0DTC2); assay: ELISA
[2] = molecular target: SARS-CoV RBD (SARS-CoV, UniProt P59594); assay: ELISA

B1: C134 (antibody, V domains shown)
VH: EVQLLESGGGLVQPGGSLRLSCAASGFTFSNYAMSWVRQAPGKGLEWVSAISGSDGSTYYAGSVKGRFTISRDNSKNTLYLQMNSLRAEDTAVYYCAKDPLITGPTYQYFHYWGQGTLVTVSS
VL: SYELTQPPSVSVAPGKTARITCGGNNIGSKSVHWYQQKPGQAPVLVIYYDSDRPSGIPERFSGSNSGNTATLTISRVEAGDEAEYHCQVWDSSSDRPGVVFGGGTKLTVL
EC50 [1]: 1.57 ng/mL | EC50 [2]: > 1000 ng/mL

B2: C029 (antibody, V domains shown)
VH: QVQLQESGPGLVKPSQTLSLTCTVSGGSISSGGYYWSWIRQHPGKGLEWIGYIYYSGSTYYNPSLKSRVTISVDTSKNQFSLKLSSVTAADTAVYYCARTMYYYDSSGSFDYWGQGTLVTVSS
VL: not shown
EC50 [1]: 4.13 ng/mL | EC50 [2]: > 1000 ng/mL

B3: C002 (antibody, V domains shown)
VH: EVQLVESGGGVVQPGRSLRLSCAASGFTFSIYGMHWVRQAPGKGLEWVAVISYDGSNKYYADSVKGRFTISRDNSKNTLYLQMNSLRAEDTAVYYCAKEGRPSDIVVVVAFDYWGQGTLVTVSS
VL: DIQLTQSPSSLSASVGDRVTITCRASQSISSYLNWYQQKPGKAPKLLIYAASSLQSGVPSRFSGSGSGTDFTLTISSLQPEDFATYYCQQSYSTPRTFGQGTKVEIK
EC50 [1]: 3.14 ng/mL | EC50 [2]: > 1000 ng/mL

B4: C165 (antibody, V domains shown)
VH: QVQLVQSGAEVKKPGSSVKVSCKASGGTFSSYAINWVRQAPGQGLEWMGRIIPIVGIANYAQKFQGRVTITADKSSSTAYMELSSLRSEDTAVYYCARDLLDPQLDDAFDIWGQGTMVTVSS
VL: not shown
EC50 [1]: 4.25 ng/mL | EC50 [2]: > 1000 ng/mL

B5: C003 (antibody, V domains shown)
VH: EVQLVESGGGLIQPGGSLRLSCAASGFTVSSNYMSWVRQAPGKGLEWVSVIYSGGSTYYADSVKGRFTISRDNSKNTLYLQMNSLRAGDTAVYYCARDYGDFYFDYWGQGTLVTVSS
VL: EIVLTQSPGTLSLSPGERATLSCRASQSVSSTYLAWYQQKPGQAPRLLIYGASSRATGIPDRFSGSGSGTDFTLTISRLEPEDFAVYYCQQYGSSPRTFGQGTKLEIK
EC50 [1]: 6.37 ng/mL | EC50 [2]: > 1000 ng/mL

B6: C207 (antibody, V domains shown)
VH: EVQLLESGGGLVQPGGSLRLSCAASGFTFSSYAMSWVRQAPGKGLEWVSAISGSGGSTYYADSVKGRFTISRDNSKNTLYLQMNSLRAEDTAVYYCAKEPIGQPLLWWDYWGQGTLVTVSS
VL: EIVLTQSPATLSLSPGERATLSCRASQSVSSYLAWYQQKPGQAPRLLIYDASNRATGIPARFSGSGSGTDFTLTISSLEPEDFAVYYCQQRSNWPRGFGQGTKVEIK
EC50 [1]: 1.87 ng/mL | EC50 [2]: > 1000 ng/mL

B7: C113 (antibody, V domains shown)
VH: QVQLVESGGGVVQPGRSLRLSCAASGFTFSNFGMHWVRQAPGKGLEWVAVIWYDGSNKYYADSVKGRFTISRDNSKNTLYLQMNSLRAEDTAVYYCARGVNPDDILTGVDAFDIWGQGTMVTVSS
VL: DIQMTQSPSTLSASVGDRVTITCRASQSMSSWLAWYQQKPGNAPKLLIYKASSLESGVPSRFSGSGSGTEFTLTISSLQPDDFATYYCQQHNSSPLTFGGGTKVEIK
EC50 [1]: 6.93 ng/mL | EC50 [2]: > 1000 ng/mL

B8: C131 (antibody, V domains shown)
VH: QVQLVQSGSEVKKPGSSVKVSCKASGGTFSSYAFSWVRQAPGQGLEWMGRIIPILALANYAQKFQGRVTITADKSTSTAYMELSSLRSEDTAVYYCARVNQAVTTPFSMDVWGQGTTVTVSS
VL: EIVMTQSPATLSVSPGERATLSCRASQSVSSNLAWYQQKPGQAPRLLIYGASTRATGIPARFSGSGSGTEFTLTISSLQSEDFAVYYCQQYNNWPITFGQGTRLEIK
EC50 [1]: 1.67 ng/mL | EC50 [2]: > 1000 ng/mL

B9: C128 (antibody, V domains shown)
VH: EVQLLESGGGLVQPGGSLRLSCAASGFTFSTYAMSWVRQAPGKGLEWVSTITGSGRDTYYADSVKGRFTISRDNSKNTLFLQLNSLRAEDAAVYSCANHPLASGDDYYHYYMDVWGKGTTVTVSS
VL: EIVLTQSPGTLSLSPGERATLSCRASQSVNSRQLAWYQQKPGQAPRLLIYGASSRATGIPERFSGSGSGTDFTLTISRLESEDFAVYHCQQYGSSRALTFGGGTKVEIK
EC50 [1]: 1.95 ng/mL | EC50 [2]: > 1000 ng/mL

B10: C124 (antibody, V domains shown)
VH: EVQLVESGGGLVQPGGSLRLSCAASGFTFSGYSMNWVRQAPGKGPEWVSYISRSSSTIYYADSVKGRFTISRDNAKNSLYLQMNSLRDEDTAVYYCAREGARVGATYDTYYFDYWGQGTLVTVSS
VL: EIVLTQSPATLSLSPGERATLSCRASQSFSSYLAWYQQKPGQAPRLLIYDASNRATGIPARFSGSGSGTDFTLTISSLEPEDFAVYYCQQRNNWPPEWTFGQGTKVEIK
EC50 [1]: 2.23 ng/mL | EC50 [2]: > 1000 ng/mL

B11: C108 (antibody, V domains shown)
VH: QVQLQESGPGLVKPSGTLSLTCAVSGGSISSTNWWSWVRQPPGKGLEWIGEIYHTGSTNYNPSLKSRVTISVDKSKNQFSLKLSSVTAADTAVYYCVRDGGRPGDAFDIWGQGTMVTVSS
VL: QSALTQPASVSGSPGQSITISCTGTSSDVGGYNYVSWYQQHPGKAPKLMIYDVSNRPSGVSNRFSGSKSGNTASLTISGLQAEDEADYYCNSYTSSSTRVFGTGTKVTVL
EC50 [1]: 5.32 ng/mL | EC50 [2]: > 1000 ng/mL

B12: C145 (antibody, V domains shown)
VH: EVQLVESGGGLIQPGGSLRLSCAASGFSVSSNYMSWVRQAPGKGLEWVSVIYSGGSTYYADSVKGRFTISRDNSKNTLYLQMNSLRAEDTAVYYCAREGEVEGYYDFWSGYSRDRYYFDYWGQGTLVTVSS
VL: QSALTQPASVSGSPGQSITISCTGTSSDVGGYNYVSWYQQHPGKAPKLMIYDVSNRPSGVSNRFSGSKSGNTASLTISGLQAEDEADYYCSSYTSSTTRVFGTGTRVTVL
EC50 [1]: 3.86 ng/mL | EC50 [2]: > 1000 ng/mL

B13: C133 (antibody, V domains shown)
VH: QVQLVESGGGVVQPGRSLRLSCAASGFTFSSYAMHWVRQAPGKGLEWVAVILYDGSNKYYADSVKGRFTISRDNSKNTLYLQMNSLRAEDTAVYYCARDSDVDTSMVTWFDYWGQGTLVTVSS
VL: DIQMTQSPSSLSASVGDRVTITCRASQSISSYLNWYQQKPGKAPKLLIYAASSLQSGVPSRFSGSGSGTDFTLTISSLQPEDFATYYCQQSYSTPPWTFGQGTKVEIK
EC50 [1]: 1.98 ng/mL | EC50 [2]: > 1000 ng/mL

B14: C118 (antibody, V domains shown)
VH: QVQLVESGGGVVQPGRSLRLSCAASGFTFSNYAMHWVRQAPGKGLEWVAVISYDGSNKYYADSVKGRFTISRDNSKNTLYLQMNSLRAEDTAIYYCASGYTGYDYFVRGDYYGLDVWGQGTTVTVSS
VL: QPVLTQSPSASASLGASVKLTCTLSSGHSSYAIAWHQQQPEKGPRYLMKLNTDGSHSKGDGIPDRFSGSSSGAERYLTISSLQSEDEADYYCQTWGTGILVFGGGTKLTVL
EC50 [1]: 3.45 ng/mL | EC50 [2]: 3.82 ng/mL

B15: C105 (antibody, V domains shown)
VH: QVQLVESGGGLIQPGGSLRLSCAASGFTVSSNYMSWVRQAPGKGLEWVSVIYSGGSTYYADSVKGRFTISRDNSKNTLYLQMNSLRAEDTAVYYCARGEGWELPYDYWGQGTLVTVSS
VL: QSALTQPPSASGSPGQSVTISCTGTSSDVGGYKYVSWYQQHPGKAPKLMIYEVSKRPSGVPDRFSGSKSGNTASLTVSGLQAEDEADYYCSSYEGSNNFVVFGGGTKLTVL
EC50 [1]: 5.2 ng/mL | EC50 [2]: > 1000 ng/mL

B16: C027 (antibody, V domains shown)
VH: EVQLVESGGGVVQPGRSLRLSCAASGFTFSSYGMHWVRQAPGKGLEWVAVISYDGSNKYYADSVKGRFTISRDNSKNTLYLQMNSLRAEDTAVYYCAKASGIYCSGGDCYSYYFDYWGQGTLVTVSS
VL: not shown
EC50 [1]: 2.65 ng/mL | EC50 [2]: 696 ng/mL

B17: C115 (antibody, V domains shown)
VH: QVQLVESGGGLIKPGRSLRLSCTASGFTFGDYAMTWFRQAPGKGLEWVGFIRSKAYGGTTGYAASVKYRFTISRDDSKSIAYLQMDSLKTEDTAVYYCTRWDGWSQHDYWGQGTLVTVSS
VL: DIVMTQSPLSLSVTPGEPASISCRSSQSLLHSNGNNYFDWYLQKPGQSPQLLIYLGSNRASGVPDRFSGSGSGTDFTLKISRVEAEDVGVYYCMQVLQIPYTFGQGTKLEIK
EC50 [1]: 3.4 ng/mL | EC50 [2]: > 1000 ng/mL

B18: C214 (antibody, V domains shown)
VH: QVQLVESGGGVVQPGRSLRLSCAASGFTFSSYGMHWVRQAPGKGLEWVAAIWYDGSNKHYADSVKGRFTISRDNSKNTLYLQMNSLRAEDTAVYYCARDVGRVTTWFDPWGQGTLVTVSS
VL: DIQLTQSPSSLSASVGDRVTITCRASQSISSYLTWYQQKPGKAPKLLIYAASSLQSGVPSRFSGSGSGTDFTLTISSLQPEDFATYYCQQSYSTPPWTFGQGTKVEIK
EC50 [1]: 5.75 ng/mL | EC50 [2]: > 1000 ng/mL
